# Reference: article PMC9352680, “A comprehensive thermodynamic model for RNA binding by the Saccharomyces cerevisiae Pumilio protein PUF4”
# T1: PUF4 RNA-binding domain (Saccharomyces cerevisiae, UniProt P25339 537-888)
# T1 sequence: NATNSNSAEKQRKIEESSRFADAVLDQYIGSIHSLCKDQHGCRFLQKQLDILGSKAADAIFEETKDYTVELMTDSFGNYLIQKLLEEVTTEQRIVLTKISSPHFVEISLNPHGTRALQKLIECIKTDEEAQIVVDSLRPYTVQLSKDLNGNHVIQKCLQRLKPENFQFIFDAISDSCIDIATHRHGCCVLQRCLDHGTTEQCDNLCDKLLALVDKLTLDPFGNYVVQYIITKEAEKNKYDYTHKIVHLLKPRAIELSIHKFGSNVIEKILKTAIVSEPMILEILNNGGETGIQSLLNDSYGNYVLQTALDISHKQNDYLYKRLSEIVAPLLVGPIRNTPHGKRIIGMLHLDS
# Target: T1, PUF4 RNA-binding domain
# Test: Mg; RNA-MaP; 20 mM Na-HEPES pH 7.4, 30 mM KOAc, 0.75 mM MgCl2, 0.1% Tween-20, 5% glycerol, 0.1 mg/mL BSA, 2 mM DTT; 25 C; 0.0125-409.6 nM protein
# Conditions: tags: N-His6-TEV cleaved; C-SNAP kept, Cy3B-labelled; label: tethered on chip by stalled RNA polymerase
row,Binder,Kd
1,Id_ii_S4_P5E.2_K5.1_C5.2_[C-2T]_[T-1C]_H5.1_A5.1_F5.1_T5.2_[T11A]_[A12G] (ssRNA) RNA: UUUGACAACUGAUCGUUCUUUCUUCUGUAUUAUUAAGUUCUUUCUCGAUCAGUUGUCUUU,34.5 nM
2,Id_ii_S4_P5E.2_K5.1_C5.2_[T-1A]_H5.1_A5.1_F5.1_T5.2_[T11A]_[A12T] (ssRNA) RNA: UUUGACAACUGAUCGUUCUUUCUCAUGUAUUAUUAAUUUCUUUCUCGAUCAGUUGUCUUU,3.49 nM
3,Id_ii_S4_P5E.2_K5.1_C5.2_[C-2T]_[T-1A]_H5.1_A5.1_F5.1_T5.2_[T11A]_[A12C] (ssRNA) RNA: UUUGACAACUGAUCGUUCUUUCUUAUGUAUUAUUAACUUCUUUCUCGAUCAGUUGUCUUU,9.12 nM
4,Id_ii_S4_P5E.2_K5.1_C5.2_[C-2A]_[T-1C]_H5.1_A5.1_F5.1_T5.2_[T11A]_[A12T] (ssRNA) RNA: UUUGACAACUGAUCGUUCUUUCUACUGUAUUAUUAAUUUCUUUCUCGAUCAGUUGUCUUU,2.62 nM
5,Id_ii_S4_P5E.2_K5.1_C5.2_[T-1C]_H5.1_A5.1_F5.1_T5.2_[A12T] (ssRNA) RNA: UUUGACAACUGAUCGUUCUUUCUCCUGUAUUAUUAUUUUCUUUCUCGAUCAGUUGUCUUU,1.38 nM
6,Id_ii_S4_P5E.2_K5.1_C5.2_[T-1G]_H5.1_A5.1_F5.1_T5.2_[T11G]_[A12C] (ssRNA) RNA: UUUGACAACUGAUCGUUCUUUCUCGUGUAUUAUUAGCUUCUUUCUCGAUCAGUUGUCUUU,1.94 nM
7,Id_ii_S4_P5E.2_K5.1_C5.2_[T-1G]_H5.1_A5.1_F5.1_T5.2_[T11G]_[A12T] (ssRNA) RNA: UUUGACAACUGAUCGUUCUUUCUCGUGUAUUAUUAGUUUCUUUCUCGAUCAGUUGUCUUU,1.95 nM
8,Id_ii_S4_P5E.2_K5.1_C5.2_[C-2T]_H5.1_A5.1_F5.1_T5.2_[T11A]_[A12T] (ssRNA) RNA: UUUGACAACUGAUCGUUCUUUCUUUUGUAUUAUUAAUUUCUUUCUCGAUCAGUUGUCUUU,2.21 nM
9,Id_ii_S4_P5E.2_K5.1_C5.2_[C-2A]_H5.1_A5.1_F5.1_T5.2_[T11A]_[A12C] (ssRNA) RNA: UUUGACAACUGAUCGUUCUUUCUAUUGUAUUAUUAACUUCUUUCUCGAUCAGUUGUCUUU,5.14 nM
10,Id_ii_S4_P5E.2_K5.1_C5.2_[C-2T]_[T-1C]_H5.1_A5.1_F5.1_T5.2_[T11A]_[A12C] (ssRNA) RNA: UUUGACAACUGAUCGUUCUUUCUUCUGUAUUAUUAACUUCUUUCUCGAUCAGUUGUCUUU,2.92 nM
11,Id_ii_S4_P5E.2_K5.1_C5.2_[T-1A]_H5.1_A5.1_F5.1_T5.2_[A12T] (ssRNA) RNA: UUUGACAACUGAUCGUUCUUUCUCAUGUAUUAUUAUUUUCUUUCUCGAUCAGUUGUCUUU,2.17 nM
12,Id_ii_S4_P5E.2_K5.1_C5.2_H5.1_A5.1_F5.1_T5.2_[T11A]_[A12C] (ssRNA) RNA: UUUGACAACUGAUCGUUCUUUCUCUUGUAUUAUUAACUUCUUUCUCGAUCAGUUGUCUUU,3 nM
13,Id_ii_S4_P5E.2_K5.1_C5.2_[C-2T]_[T-1A]_H5.1_A5.1_F5.1_T5.2_[T11A] (ssRNA) RNA: UUUGACAACUGAUCGUUCUUUCUUAUGUAUUAUUAAAUUCUUUCUCGAUCAGUUGUCUUU,10.7 nM
14,Id_ii_S4_P5E.2_K5.1_C5.2_[C-2T]_[T-1A]_H5.1_A5.1_F5.1_T5.2_[T11G]_[A12T] (ssRNA) RNA: UUUGACAACUGAUCGUUCUUUCUUAUGUAUUAUUAGUUUCUUUCUCGAUCAGUUGUCUUU,4.76 nM
15,Id_ii_S4_P5E.2_K5.1_C5.2_[C-2A]_H5.1_A5.1_F5.1_T5.2_[A12G] (ssRNA) RNA: UUUGACAACUGAUCGUUCUUUCUAUUGUAUUAUUAUGUUCUUUCUCGAUCAGUUGUCUUU,4.86 nM
16,Id_ii_S4_P5E.2_K5.1_C5.2_[C-2T]_H5.1_A5.1_F5.1_T5.2_[A12C] (ssRNA) RNA: UUUGACAACUGAUCGUUCUUUCUUUUGUAUUAUUAUCUUCUUUCUCGAUCAGUUGUCUUU,2.29 nM
17,Id_ii_S4_P5E.2_K5.1_C5.2_[T-1A]_H5.1_A5.1_F5.1_T5.2_[T11A] (ssRNA) RNA: UUUGACAACUGAUCGUUCUUUCUCAUGUAUUAUUAAAUUCUUUCUCGAUCAGUUGUCUUU,8.86 nM
18,Id_ii_S4_P5E.2_K5.1_C5.2_[C-2A]_[T-1C]_H5.1_A5.1_F5.1_T5.2_[A12C] (ssRNA) RNA: UUUGACAACUGAUCGUUCUUUCUACUGUAUUAUUAUCUUCUUUCUCGAUCAGUUGUCUUU,2.14 nM
19,UCUCUUUGCAUCAUUAUCUCUU (ssRNA) [Ib_S1_P5E.1_K5.1_C5.1_H5.1_[T3C]_A5.1_[T6C]_F5.1_T5.1],1980 nM
20,UCUCUUUGCAUUGUUAUCUCUU (ssRNA) [Ib_S1_P5E.1_K5.1_C5.1_H5.1_[T3C]_A5.1_[A7G]_F5.1_T5.1],2260 nM
